Measurements as given in the supplement of paper PMC10065799, “High-throughput profiling of sequence recognition by tyrosine kinases and SH2 domains using bacterial peptide display” (eLife, 2023).

Assays:
Fer (mouse) = experiment: phosphorylation enrichment, bacterial display (enrichment ratio); higher = better substrate or ligand; peptides without Tyr show the background
AncSZ = experiment: as above
Fyn = Fyn (UniProt P06241); experiment: as above
EPHB1 = EPHB1 (UniProt P54762); experiment: as above
Hck = Hck (UniProt P08631); experiment: as above
Chain of Hck (P08631 whole entry, looked up): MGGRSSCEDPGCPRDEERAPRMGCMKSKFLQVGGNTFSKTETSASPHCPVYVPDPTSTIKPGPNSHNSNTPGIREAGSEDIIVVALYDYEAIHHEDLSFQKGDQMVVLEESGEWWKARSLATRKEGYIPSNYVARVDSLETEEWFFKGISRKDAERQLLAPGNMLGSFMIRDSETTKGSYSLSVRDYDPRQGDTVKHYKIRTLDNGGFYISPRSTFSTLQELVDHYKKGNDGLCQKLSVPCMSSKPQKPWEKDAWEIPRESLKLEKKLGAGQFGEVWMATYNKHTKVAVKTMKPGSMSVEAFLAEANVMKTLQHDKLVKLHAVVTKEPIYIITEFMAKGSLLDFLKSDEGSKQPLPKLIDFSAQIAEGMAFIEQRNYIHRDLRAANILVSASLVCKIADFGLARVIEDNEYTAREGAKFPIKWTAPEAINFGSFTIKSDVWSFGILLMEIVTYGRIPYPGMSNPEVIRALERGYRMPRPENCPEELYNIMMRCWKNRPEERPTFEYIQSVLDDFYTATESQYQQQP

c-Abl (mouse) = experiment: as above
c-Src = experiment: as above
Fes = Fes (UniProt P07332); experiment: as above
FGFR1 = FGFR1 (UniProt P11362); experiment: as above
MERTK = MERTK (UniProt Q12866); experiment: as above
Chain of MERTK (Q12866 whole entry, looked up): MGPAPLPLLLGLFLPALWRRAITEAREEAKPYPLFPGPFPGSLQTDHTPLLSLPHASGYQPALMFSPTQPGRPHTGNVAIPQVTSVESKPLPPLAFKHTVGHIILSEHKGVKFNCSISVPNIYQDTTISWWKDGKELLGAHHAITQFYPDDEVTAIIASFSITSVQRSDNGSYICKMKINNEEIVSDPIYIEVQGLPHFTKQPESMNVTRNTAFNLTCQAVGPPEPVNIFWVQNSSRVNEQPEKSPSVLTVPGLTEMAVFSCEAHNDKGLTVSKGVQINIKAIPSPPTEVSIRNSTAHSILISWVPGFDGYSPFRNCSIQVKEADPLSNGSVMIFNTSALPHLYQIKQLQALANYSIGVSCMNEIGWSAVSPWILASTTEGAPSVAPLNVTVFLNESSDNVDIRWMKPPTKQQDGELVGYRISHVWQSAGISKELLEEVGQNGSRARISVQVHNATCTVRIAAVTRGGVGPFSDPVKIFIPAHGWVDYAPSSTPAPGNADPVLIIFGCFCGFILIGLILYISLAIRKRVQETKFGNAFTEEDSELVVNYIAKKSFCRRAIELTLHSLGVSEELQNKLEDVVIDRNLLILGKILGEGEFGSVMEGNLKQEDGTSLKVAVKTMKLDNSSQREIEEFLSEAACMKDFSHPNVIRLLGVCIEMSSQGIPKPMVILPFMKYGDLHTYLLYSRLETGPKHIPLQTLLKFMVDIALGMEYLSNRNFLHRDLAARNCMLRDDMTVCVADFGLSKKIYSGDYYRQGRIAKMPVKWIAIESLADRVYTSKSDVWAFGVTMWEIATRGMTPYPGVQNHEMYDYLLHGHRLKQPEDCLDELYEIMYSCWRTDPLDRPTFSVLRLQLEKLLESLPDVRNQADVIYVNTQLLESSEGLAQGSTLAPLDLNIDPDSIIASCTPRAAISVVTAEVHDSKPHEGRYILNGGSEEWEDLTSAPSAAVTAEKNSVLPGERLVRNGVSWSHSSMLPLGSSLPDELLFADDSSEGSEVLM

Jak2 = Jak2 (UniProt O60674); experiment: as above
Chain of Jak2 (O60674 whole entry, looked up): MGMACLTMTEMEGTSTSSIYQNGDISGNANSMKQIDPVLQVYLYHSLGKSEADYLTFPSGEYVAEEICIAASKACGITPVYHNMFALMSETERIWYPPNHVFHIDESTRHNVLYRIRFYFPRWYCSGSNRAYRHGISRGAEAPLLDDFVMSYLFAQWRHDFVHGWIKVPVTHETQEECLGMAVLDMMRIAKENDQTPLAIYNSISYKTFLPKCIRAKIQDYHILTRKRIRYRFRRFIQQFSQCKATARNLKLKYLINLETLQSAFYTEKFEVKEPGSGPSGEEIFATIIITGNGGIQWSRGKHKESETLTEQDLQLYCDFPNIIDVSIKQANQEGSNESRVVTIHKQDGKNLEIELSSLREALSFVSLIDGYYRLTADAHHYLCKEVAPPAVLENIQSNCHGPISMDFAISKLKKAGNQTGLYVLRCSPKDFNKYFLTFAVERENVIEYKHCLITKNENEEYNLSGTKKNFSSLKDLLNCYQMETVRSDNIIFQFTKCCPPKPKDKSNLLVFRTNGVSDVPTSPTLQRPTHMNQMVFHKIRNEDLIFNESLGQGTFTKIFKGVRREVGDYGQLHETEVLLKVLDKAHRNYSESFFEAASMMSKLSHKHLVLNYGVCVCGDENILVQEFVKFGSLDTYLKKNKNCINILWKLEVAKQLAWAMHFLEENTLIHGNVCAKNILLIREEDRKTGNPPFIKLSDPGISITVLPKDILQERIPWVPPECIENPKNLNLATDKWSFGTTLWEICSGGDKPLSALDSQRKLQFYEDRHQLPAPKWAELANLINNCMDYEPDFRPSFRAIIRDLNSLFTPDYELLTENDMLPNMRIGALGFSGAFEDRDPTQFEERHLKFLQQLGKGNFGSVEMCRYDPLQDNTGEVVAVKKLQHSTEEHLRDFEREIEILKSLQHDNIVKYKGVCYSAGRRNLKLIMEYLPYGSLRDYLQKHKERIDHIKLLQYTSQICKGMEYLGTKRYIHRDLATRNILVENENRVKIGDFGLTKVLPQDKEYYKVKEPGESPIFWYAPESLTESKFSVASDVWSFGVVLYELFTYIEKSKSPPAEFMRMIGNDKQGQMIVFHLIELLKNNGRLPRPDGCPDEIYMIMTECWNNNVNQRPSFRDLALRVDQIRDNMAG

EPHB2 = EPHB2 (UniProt P29323); experiment: as above
Chain of EPHB2 (P29323 whole entry, looked up): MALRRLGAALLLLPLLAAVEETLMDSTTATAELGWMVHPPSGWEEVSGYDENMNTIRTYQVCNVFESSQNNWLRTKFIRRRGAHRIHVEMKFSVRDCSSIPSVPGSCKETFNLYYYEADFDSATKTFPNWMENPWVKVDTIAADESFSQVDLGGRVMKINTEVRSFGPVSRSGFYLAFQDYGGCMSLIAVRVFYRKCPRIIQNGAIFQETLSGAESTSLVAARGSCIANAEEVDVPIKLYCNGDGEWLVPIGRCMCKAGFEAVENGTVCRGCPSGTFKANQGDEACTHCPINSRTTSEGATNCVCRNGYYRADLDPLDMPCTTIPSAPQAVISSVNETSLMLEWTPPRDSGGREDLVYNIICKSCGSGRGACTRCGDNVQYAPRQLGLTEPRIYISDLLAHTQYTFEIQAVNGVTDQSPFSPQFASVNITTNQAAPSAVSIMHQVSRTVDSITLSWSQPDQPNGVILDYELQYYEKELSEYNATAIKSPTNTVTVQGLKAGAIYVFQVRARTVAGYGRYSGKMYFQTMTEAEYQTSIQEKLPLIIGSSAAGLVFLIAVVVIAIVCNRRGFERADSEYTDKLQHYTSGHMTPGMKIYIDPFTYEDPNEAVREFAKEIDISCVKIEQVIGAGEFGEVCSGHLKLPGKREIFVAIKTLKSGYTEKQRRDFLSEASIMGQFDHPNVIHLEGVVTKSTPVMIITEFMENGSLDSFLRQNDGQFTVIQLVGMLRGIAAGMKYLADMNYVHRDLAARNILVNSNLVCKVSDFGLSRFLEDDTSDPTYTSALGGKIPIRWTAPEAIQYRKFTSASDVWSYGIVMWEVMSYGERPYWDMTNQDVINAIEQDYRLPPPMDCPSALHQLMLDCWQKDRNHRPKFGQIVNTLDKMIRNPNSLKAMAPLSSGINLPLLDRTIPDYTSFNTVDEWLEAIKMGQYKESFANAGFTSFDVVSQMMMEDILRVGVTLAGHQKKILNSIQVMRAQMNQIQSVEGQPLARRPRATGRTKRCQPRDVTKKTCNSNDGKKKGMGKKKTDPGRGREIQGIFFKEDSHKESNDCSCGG

FGFR3 = FGFR3 (UniProt P22607); experiment: as above
Chain of FGFR3 (P22607 whole entry, looked up): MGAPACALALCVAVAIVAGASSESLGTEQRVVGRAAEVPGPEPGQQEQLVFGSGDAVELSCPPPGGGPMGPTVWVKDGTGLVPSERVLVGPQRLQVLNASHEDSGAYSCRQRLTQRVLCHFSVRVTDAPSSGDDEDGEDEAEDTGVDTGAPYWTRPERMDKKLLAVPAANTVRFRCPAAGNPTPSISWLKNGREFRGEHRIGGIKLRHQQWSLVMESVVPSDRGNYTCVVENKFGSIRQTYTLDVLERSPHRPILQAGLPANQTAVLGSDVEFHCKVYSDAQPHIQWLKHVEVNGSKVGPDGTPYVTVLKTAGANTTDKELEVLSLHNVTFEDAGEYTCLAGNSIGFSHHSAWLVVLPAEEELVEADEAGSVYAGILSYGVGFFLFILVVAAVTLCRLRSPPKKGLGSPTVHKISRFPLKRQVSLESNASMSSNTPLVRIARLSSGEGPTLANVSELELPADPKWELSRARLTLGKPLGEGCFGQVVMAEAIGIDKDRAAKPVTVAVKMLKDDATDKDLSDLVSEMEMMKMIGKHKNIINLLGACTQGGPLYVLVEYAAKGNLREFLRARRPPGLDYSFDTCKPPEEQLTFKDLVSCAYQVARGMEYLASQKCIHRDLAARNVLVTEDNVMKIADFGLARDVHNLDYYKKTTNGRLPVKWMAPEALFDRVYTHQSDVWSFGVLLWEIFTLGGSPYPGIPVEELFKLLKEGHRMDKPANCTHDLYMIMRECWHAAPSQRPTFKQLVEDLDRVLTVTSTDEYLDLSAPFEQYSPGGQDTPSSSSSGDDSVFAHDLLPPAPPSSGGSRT

Grb2 SH2 = Grb2 SH2 (UniProt P62993); experiment: SH2 binding enrichment of the phosphorylated peptide, bacterial display (enrichment ratio); higher = better substrate or ligand; peptides without Tyr show the background
c-Src SH2 = experiment: as above
SHP2-C SH2 = experiment: as above
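For SH2 binding enrichment of the phosphorylated peptide, bacterial display in this document: peptide library displayed on the E. coli surface as eCPX fusions, selected cells deep-sequenced, score is each peptide's frequency after selection divided by its frequency in the input.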
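For phosphorylation enrichment, bacterial display in this document: 11-residue human phosphosite peptides and single-mutation variants displayed on the E. coli surface, counted by deep sequencing, each peptide's frequency after selection divided by its frequency in the unselected input library; frequency after pTyr selection over input frequency; kinase dosed for 20-30% of maximal phosphorylation in three min.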

Chain of Fyn (P06241 whole entry, looked up): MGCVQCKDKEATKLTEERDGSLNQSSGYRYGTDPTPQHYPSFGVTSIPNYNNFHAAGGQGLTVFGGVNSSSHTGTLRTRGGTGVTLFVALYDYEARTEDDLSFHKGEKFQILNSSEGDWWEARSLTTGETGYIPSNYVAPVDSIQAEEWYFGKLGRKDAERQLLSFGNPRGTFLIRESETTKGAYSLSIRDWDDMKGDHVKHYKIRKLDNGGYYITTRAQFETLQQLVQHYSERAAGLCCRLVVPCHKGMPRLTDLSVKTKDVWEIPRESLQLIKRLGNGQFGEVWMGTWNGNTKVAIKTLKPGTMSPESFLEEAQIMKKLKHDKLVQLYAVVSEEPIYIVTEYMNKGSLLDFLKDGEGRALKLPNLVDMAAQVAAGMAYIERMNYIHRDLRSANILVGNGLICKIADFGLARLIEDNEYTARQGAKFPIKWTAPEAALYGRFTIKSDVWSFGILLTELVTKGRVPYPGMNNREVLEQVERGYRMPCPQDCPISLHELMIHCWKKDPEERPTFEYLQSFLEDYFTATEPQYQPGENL

Row | Sequence | SH2 binding enrichment (Grb2 SH2) | SH2 binding enrichment (c-Src SH2) | SH2 binding enrichment (SHP2-C SH2) | phosphorylation enrichment (Fer (mouse)) | phosphorylation enrichment (AncSZ) | phosphorylation enrichment (Fyn) | phosphorylation enrichment (EPHB1) | phosphorylation enrichment (Hck) | phosphorylation enrichment (c-Abl (mouse)) | phosphorylation enrichment (c-Src) | phosphorylation enrichment (Fes) | phosphorylation enrichment (FGFR1) | phosphorylation enrichment (MERTK) | phosphorylation enrichment (Jak2) | phosphorylation enrichment (EPHB2) | phosphorylation enrichment (FGFR3)
1 | PTQLPYDHKWK [KIT_Y578_E583K] | 0.756 | 0.437 | 0.512 | 0.478 | 0.725 | 0.433 | 0.484 | 0.397 | 0.634 | 0.425 | 0.677 | 0.58 | 0.28 | 0.626 | 0.299 | 0.439
2 | PVDVAYRRGYF [PLEC_Y2967] | 0.876 | 0.456 | 0.519 | 0.601 | 0.867 | 0.642 | 0.385 | 0.587 | 0.743 | 0.361 | 0.661 | 0.565 | 0.399 | 0.556 | 0.577 | 0.588
3 | PVGDAYKKKGL [NMNAT1_Y55] | 0.831 | 0.626 | 0.673 | 0.609 | 0.677 | 0.522 | 0.501 | 0.559 | 0.574 | 0.493 | 0.976 | 0.651 | 0.874 | 0.787 | 0.924 | 0.624
4 | QDDFSYPSRQM [LDLR_Y847_G844D_YF] | 0.851 | 0.54 | 0.892 | 0.492 | 0.791 | 0.414 | 0.549 | 0.575 | 0.609 | 0.403 | 0.826 | 0.425 | 0.497 | 0.674 | 0.575 | 0.704
5 | QDEHGYIFRCF [HSPB1_Y133_S135F] | 0.702 | 0.566 | 0.469 | 0.793 | 1.75 | 0.924 | 1.27 | 0.735 | 1.19 | 0.661 | 2.15 | 0.912 | 0.524 | 1.6 | 0.762 | 1.31
6 | QDIMAYRGREV [BCL6_Y157] | 0.769 | 0.447 | 0.729 | 0.616 | 1.1 | 0.632 | 0.52 | 0.448 | 0.536 | 0.531 | 1.04 | 0.565 | 0.599 | 0.937 | 0.553 | 0.717
7 | QFLMKYVWSAS [ABCD1_Y337] | 0.677 | 0.499 | 0.668 | 0.565 | 1.15 | 0.3 | 0.582 | 0.587 | 0.929 | 0.559 | 1.49 | 0.513 | 0.528 | 1.42 | 0.541 | 0.759
8 | QLHRKYCLSPR [HJURP_Y445_E444K] | 1.09 | 0.961 | 0.859 | 0.603 | 0.677 | 0.545 | 0.523 | 0.533 | 0.679 | 0.636 | 0.852 | 0.815 | 0.491 | 0.527 | 0.728 | 0.581
9 | QLQTTYPSSDN [MAX_Y115_N114T] | 0.921 | 0.448 | 0.73 | 0.789 | 0.773 | 0.35 | 0.445 | 0.474 | 0.566 | 0.556 | 0.752 | 0.433 | 0.357 | 0.853 | 0.48 | 0.626
10 | QNTGVYYDLYG [PTPN11_Y62_D61V] | 1.38 | 4.65 | 0.892 | 3.07 | 2 | 8.43 | 6.99 | 7.99 | 1.23 | 7.18 | 1.49 | 16.3 | 10.9 | 2.61 | 5.61 | 14.5
11 | QPGDICHQTWA [GBA_Y244_Y244C] | 0.776 | 0.732 | 0.603 | 0.462 | 0.796 | 0.478 | 0.515 | 0.337 | 0.741 | 0.369 | 1.08 | 0.507 | 0.306 | 0.906 | 0.45 | 0.608
12 | QRALLYEDALF [UNC13D_Y56_YF] | 0.828 | 0.593 | 0.573 | 16.1 | 1.21 | 1.54 | 10.4 | 1.45 | 0.878 | 1.5 | 2.16 | 0.68 | 4.86 | 0.867 | 8.85 | 0.896
13 | QRKPSYNQLAS [BRCA2_Y71] | 1.59 | 1.06 | 1.14 | 0.244 | 0.449 | 0.399 | 0.344 | 0.345 | 0.471 | 0.415 | 0.53 | 0.543 | 0.392 | 0.598 | 0.53 | 0.642
14 | QRKRAYVEIEF [MAK16_Y282_YF] | 1.55 | 3.17 | 2.48 | 0.48 | 0.926 | 0.655 | 0.838 | 0.398 | 0.631 | 0.63 | 1.42 | 0.617 | 0.643 | 0.723 | 0.594 | 0.785
15 | QTPVLYAMLDH [MPZ_Y220] | 0.837 | 0.922 | 2.71 | 9.39 | 0.853 | 5.21 | 10.7 | 7.14 | 2.67 | 4.54 | 1.02 | 3.44 | 10.7 | 0.845 | 8.88 | 2.84
16 | RALCHYYKLNI [ETV6_Y401_R399C] | 1.74 | 1.45 | 1.23 | 1.29 | 1.88 | 0.947 | 1.09 | 1.59 | 2.78 | 2.63 | 1.99 | 9.12 | 3.95 | 6.35 | 1.16 | 5.19
17 | REVVNYVQKRN [RMI1_Y450] | 1.1 | 0.632 | 0.787 | 0.554 | 0.931 | 0.541 | 0.622 | 0.696 | 0.975 | 0.582 | 1.08 | 0.36 | 0.869 | 0.598 | 0.595 | 0.521

More lines, main results first:

Row | SH2 binding enrichment (Grb2 SH2) | SH2 binding enrichment (c-Src SH2) | SH2 binding enrichment (SHP2-C SH2) | Sequence | phosphorylation enrichment (Fer (mouse)) | phosphorylation enrichment (AncSZ) | phosphorylation enrichment (Fyn) | phosphorylation enrichment (EPHB1) | phosphorylation enrichment (Hck) | phosphorylation enrichment (c-Abl (mouse)) | phosphorylation enrichment (c-Src) | phosphorylation enrichment (Fes) | phosphorylation enrichment (FGFR1) | phosphorylation enrichment (MERTK) | phosphorylation enrichment (Jak2) | phosphorylation enrichment (EPHB2) | phosphorylation enrichment (FGFR3)
18 | 0.84 | 1.06 | 1.48 | PSQRRYLYYYS [PTEN_Y174_V175L] | 0.92 | 1.77 | 1.04 | 0.616 | 0.737 | 0.659 | 0.64 | 1.4 | 0.873 | 4.1 | 1.99 | 0.697 | 0.937
19 | 1.04 | 0.649 | 0.974 | QDDTVYMGKVT [DCTN1_Y1244] | 2.72 | 1.96 | 0.958 | 0.8 | 1.24 | 1.37 | 0.917 | 2.4 | 0.789 | 0.714 | 1.31 | 0.918 | 1.17
20 | 0.948 | 0.58 | 0.635 | QFRFIYMAVQH [PTPN11_Y515_YF] | 1.3 | 2.5 | 0.939 | 1.06 | 1.42 | 1.73 | 1.97 | 2.52 | 0.544 | 0.858 | 2.21 | 0.704 | 1.22
21 | 0.956 | 0.497 | 0.931 | QGCGIYKDYYR [PLA2G2D_Y82_S80G] | 0.67 | 1.69 | 5.71 | 1.04 | 3.57 | 1.18 | 6.8 | 1.59 | 1.1 | 0.773 | 1.21 | 0.904 | 1.19
22 | 1.03 | 2.15 | 1.67 | QGIYGYHHYMQ [UFSP2_Y287] | 13.8 | 1.6 | 10.6 | 3.8 | 8.27 | 5.12 | 8.3 | 1.31 | 1.32 | 10.4 | 1.36 | 8.11 | 1.52
23 | 0.889 | 0.486 | 0.678 | QHVPDYRQNGY [PCDHGA1_Y890_V894G] | 0.496 | 0.788 | 0.523 | 0.484 | 0.524 | 0.621 | 0.514 | 0.887 | 0.52 | 0.493 | 0.719 | 0.548 | 0.578
24 | 2.77 | 1.64 | 3 | QKKPRYEIRWK [PDGFRB_Y562] | 1.02 | 1.96 | 0.895 | 0.928 | 0.723 | 1.05 | 0.605 | 1.75 | 0.756 | 1.16 | 1.74 | 0.919 | 2.06
25 | 1.07 | 0.707 | 0.575 | QMVDMYASSFM [AVPR2_Y124_G122D_YF] | 0.9 | 1.29 | 1.35 | 0.992 | 1.58 | 1.2 | 2.34 | 1.31 | 0.779 | 0.707 | 1.47 | 0.805 | 0.923
26 | 0.844 | 0.369 | 0.428 | QRIYQYIRSRF [DYRK1B_Y273_Q275R] | 0.734 | 0.887 | 0.809 | 0.9 | 1.05 | 1.27 | 1.16 | 1.17 | 0.677 | 1.01 | 0.817 | 0.601 | 0.818
27 | 0.675 | 4.61 | 0.718 | QRKRAYVEIEY [MAK16_Y282] | 0.441 | 0.696 | 0.585 | 0.362 | 0.672 | 2.01 | 0.68 | 0.752 | 0.623 | 0.416 | 0.73 | 0.463 | 0.663
28 | 1.13 | 0.642 | 0.821 | QRRFVYFFSFL [PTEN_Y176_YF] | 1.91 | 1.6 | 0.656 | 0.563 | 0.57 | 1.12 | 0.567 | 1.46 | 0.573 | 0.618 | 1.15 | 0.61 | 0.908
29 | 0.891 | 0.549 | 0.522 | QWRTKYEMDAI [MYH7_Y1375_T1377M] | 0.365 | 1.12 | 0.773 | 0.479 | 0.561 | 0.5 | 0.344 | 0.964 | 0.58 | 0.384 | 0.519 | 0.4 | 0.843
30 | 0.769 | 0.485 | 0.735 | QWRTKYETDTI [MYH7_Y1375_A1379T] | 0.5 | 0.819 | 0.489 | 0.616 | 0.624 | 0.798 | 0.56 | 1.49 | 0.473 | 0.414 | 1.56 | 0.797 | 0.757
31 | 1.58 | 1.18 | 1.79 | RAYSWYQHQRA [NDST1_Y714] | 0.641 | 1.03 | 0.242 | 0.538 | 0.582 | 0.964 | 0.527 | 1.16 | 0.472 | 0.619 | 1.06 | 0.716 | 0.792
32 | 1.04 | 0.598 | 0.838 | REDIFYTSKLW [AKR1C2_Y81] | 0.543 | 1.07 | 0.692 | 0.978 | 0.77 | 0.607 | 0.438 | 1.12 | 0.592 | 0.645 | 0.947 | 0.796 | 1.01
33 | 0.589 | 0.425 | 0.47 | REQREYLDQLN [CCDC88B_Y1277] | 0.532 | 0.917 | 0.624 | 0.666 | 0.604 | 2.21 | 0.521 | 0.984 | 0.693 | 0.433 | 0.578 | 0.663 | 0.66
